Experimental data reported in the supplement of paper PMC10567573.

B1: USP39 (parent)
chain: TLSEAYIQIWKRRDNDETNQQGA

Variants of: B1
Test: protein stability index of a GFP-peptide fusion (GPS, HEK-293T) (PSI 1-6); higher = more stable
Conditions: c terminus: native
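Also: lentivirally expressed fusions sorted by FACS into six bins by GFP to DsRed ratio, PSI derived from sequencing read proportions per bin multiplied by bin number.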

Protein stability index, by site and new letter:
T18: A 3.05; N 2.41; I 3.17; V 2.56; E 2.56; F 1.73; S 1.89; L 2.06; R 2.54; D 1.95; Y 2.51; C 1.69; H 3.19; P 1.87; K 3.63; G 2.57; W 2.11; M 1.43; Q 1.61
D16: K 2.32; Y 2.9; S 2.22; F 1.51; M 2.93; Q 2.22; E 2.14; N 2.67; W 3.13; L 2.61; H 1.63; C 2.54; T 1.98; R 1.66; G 1.65; A 2.1; P 1.29; I 1.95
E17: W 2.35; A 1.8; Y 1.87; N 1.77; C 2.33; H 1.6; P 2.4; D 2.79; T 1.9; V 1.5; F 1.99; L 1.71; Q 1.55; I 1.93; K 1.72; R 1.63; G 2.66
G22: V 3.41; S 3.82; C 2.83; I 3.35; W 2.45; L 3.26; R 2.83; A 3.77; Q 4.13; T 3.66; D 3.84; K 4.09; Y 3.04; P 3.05; N 4.12; M 3.1; E 4.79; F 3; H 3.63
N19: D 4.38; Q 2.85; C 2.1; L 1.79; K 2.77; T 3.51; A 2.38; M 2.06; S 2.9; R 2.37; V 2.32; Y 3.5; G 3.69; E 3.9; P 1.45; H 2.75; W 2.61; F 2.99
D14: T 2.39; Y 1.9; W 1.94; S 1.94; V 2.9
N15: R 2.24; T 1.88; D 3.03; P 1.77; W 2.36; Y 1.28; S 1.88; C 2.31; I 2.53; Q 2.01; E 3.18; V 2.12; H 3.1; K 2.51; G 2.68; M 1.86; L 1.92; F 2.24; A 2.38
A23: M 4.35; H 4.18; C 3.53; I 3.76; F 3.71; L 3.89; D 4.15; N 4.51; P 4.07; K 4.54; S 3.94; R 2.59; E 4.22; Q 4.5
Q20: S 4.26; Y 2.4; K 2.14; P 1; A 2.51; D 2.37; H 1.58; R 2.35; V 1.73; M 3.46; C 2.38; I 1.74; G 2.68; F 2.02; E 2.15; N 3.41; T 3.77; W 2.17; L 2.02
Q21: L 2.09; C 1.76; R 1.53; K 3.59; W 1.84; M 1.8; T 3.59; E 2.87; Y 2.43; F 1.79; S 2.96; P 4.25; G 2.52; D 2.74; V 1.96; H 2.05; A 2.96; I 2.66; N 3.81
